The target in assay [1] is T1, human CD40 expressed on cells (human, UniProt P25942 21-277). Nature of the assay: cell-based or functional assay.
Assay [2] deals with T2, His-tagged human FAP ectodomain (human, UniProt Q12884 27-760).
T2 construct: also called hu FAP ectodomain+poly-lys-tag+his6-tag; His-tagged FAP antigen
Nature of the assay: SPR, His-tagged human FAP ectodomain as ligand. On the technique in general: In SPR one partner is held on a chip, and binding of the other changes the refractive index at the surface.

The target of assay [3] is T1, human CD40 expressed on cells. Nature of the assay: flow cytometry, primary human B cells. On the technique in general: In flow cytometry, cells or beads pass a laser one at a time.
Protocol: Plates were centrifuged 5 minutes at 1700 rpm and supernatants were flicked off. […] All samples were resuspended in 50 μL/well of 4° C. cold FACS buffer containing the bispecific antigen binding molecules (primary antibody) or the isotype control antibody DP47 at the indicated range of concentrations (in duplicates) and incubated for 120 minutes at 4° C. Afterwards the cells were washed three times with 200 μL 4° C. cold FACS buffer. […] Data analysis was performed using the FlowJo version 10 software (FlowJo LLC).
For assay [4], the target named is T3, biotinylated recombinant human FAP (human, UniProt Q12884 26-760, biotinylated).
T3 construct: also called biotinylated human FAP
Nature of the assay: SPR (Biacore).

Assay [5] deals with T4, human Fibroblast Activation Protein (FAP) expressed on cells (human, UniProt Q12884 1-760).
T4 construct: Cell-surface human FAP on transfected HEK or NIH/3T3 cells; also called huFAP; human FAP-transfected HEK cells
The experiment in a line: flow cytometry, huFAP-transfected HEK cells.
Protocol: The binding of anti-FAP antibodies with a human IgG1 P329G LALA Fc to human FAP was determined by flow cytometry using human FAP-transfected HEK cells. Briefly, the target cells were harvested with Cell Dissociation buffer, washed with FACS Buffer (PBS+2% FCS+5 mM EDTA+0.25% sodium acide) and seeded into 96-U bottom plates (1×10^5 cells/well). Unlabeled primary antibodies were added to the cells (final concentrations 10 μg/ml to 0.64 ng/ml; 1:5 dilutions) and incubated for 30 min at 4° C. After washing, cells were incubated with a PE-conjugated AffiPure F(ab)₂ Fragment Goat anti-human IgG, Fc□ specific (Jackson Immunoresearch) for 30 min at 4° C. in the dark. Afterwards, cells were washed, fixed and measured using a BD FACS LSR Fortessa™.

B1: P1AF0873, CD40 (P1AE0817) x FAP (P1AE1689) (1+1) C-terminal crossfab fusion (bispecific antibody, human IgG1, kappa, L234A L235A)
light 1: QVQLVQSGAEVKKPGASVKVSCKASGYTLTDYNMDWVRQAPGQGLEWIGDIYPNTGGTIYNQKFKGRVTMTIDTSTSTVYMELSSLRSEDTAVYYCTRFRGIHYAMDYWGQGTTVTVSSASVAAPSVFIFPPSDEQLKSGTASVVCLLNNFYPREAKVQWKVDNALQSGNSQESVTEQDSKDSTYSLSSTLTLSKADYEKHKVYACEVTHQGLSSPVTKSFNRGEC
light 2: DIVMTQTPLSLSVTPGQPASISCRSSQSLVHSNGNTFLHWYLQKPGQSPQLLIYTVSNRFSGVPDRFSGSGSGTDFTLKISRVEAEDVGVYFCSQTTHVPWTFGGGTKVEIKRTVAAPSVFIFPPSDRKLKSGTASVVCLLNNFYPREAKVQWKVDNALQSGNSQESVTEQDSKDSTYSLSSTLTLSKADYEKHKVYACEVTHQGLSSPVTKSFNRGEC
heavy: not shown
chain: not shown
As for B1, the “EC50, two cell line bridging assay (SEAP of HEK-Blue CD40L reporter cells with FAP-expressing WM-266-4 cells)” value (“EC50, two cell line bridging assay” for short) in assay [1] was determined as 0.0265 nM.

B2: P1AE2734, CD40 (P1AE0817) x FAP (P1AE1689) (2+1) with different C-terminal crossfab fusion (bispecific antibody, human IgG1, kappa, L234A L235A)
light 1: EIVLTQSPATLSLSPGERATLSCRASESVDNYGLSFINWFQQKPGQAPRLLIYGTSNRGSGIPARFSGSGSGTDFTLTISSLEPEDFAVYFCQQSNEVPYTFGGGTKVEIKSSASTKGPSVFPLAPSSKSTSGGTAALGCLVKDYFPEPVTVSWNSGALTSGVHTFPAVLQSSGLYSLSSVVTVPSSSLGTQTYICNVNHKPSNTKVDKKVEPKSC
light 2: DIVMTQTPLSLSVTPGQPASISCRSSQSLVHSNGNTFLHWYLQKPGQSPQLLIYTVSNRFSGVPDRFSGSGSGTDFTLKISRVEAEDVGVYFCSQTTHVPWTFGGGTKVEIKRTVAAPSVFIFPPSDEQLKSGTASVVCLLNNFYPREAKVQWKVDNALQSGNSQESVTEQDSKDSTYSLSSTLTLSKADYEKHKVYACEVTHQGLSSPVTKSFNRGEC
heavy 1: not shown
heavy 2: QVQLVQSGAEVKKPGASVKVSCKASGYSFTGYYIHWVRQAPGQSLEWMGRVIPNAGGTSYNQKFKGRVTLTVDKSISTAYMELSRLRSDDTAVYYCAREGIYWWGQGTTVTVSSASTKGPSVFPLAPSSKSTSGGTAALGCLVKDYFPEPVTVSWNSGALTSGVHTFPAVLQSSGLYSLSSVVTVPSSSLGTQTYICNVNHKPSNTKVDKKVEPKSCDKTHTCPPCPAPEAAGGPSVFLFPPKPKDTLMISRTPEVTCVVVDVSHEDPEVKFNWYVDGVEVHNAKTKPREEQYNSTYRVVSVLTVLHQDWLNGKEYKCKVSNKALGAPIEKTISKAKGQPREPQVCTLPPSRDELTKNQVSLSCAVKGFYPSDIAVEWESNGQPENNYKTTPPVLDSDGSFFLVSKLTVDKSRWQQGNVFSCSVMHEALHNHYTQKSLSLSPG
notes: bivalent for CD40, monovalent for FAP; also called VH-Ckappa fused to Fc
A word on the Kd: it is the concentration at which binding is half-saturated. The koff is the rate constant with which the complex falls apart. What is called kon is the second-order rate constant of association. In assay [2], B2 returned a Kd of 0.21 nM, a koff of 5.2e-05 s⁻¹ and an on-rate (kon) of 250000 M⁻¹ s⁻¹.

B3: P1AE2302, CD40 (P1AE0817) x FAP (28H1) (2+1) C-terminal crossfab fusion (bispecific antibody, human IgG1, kappa, L234A L235A)
light 1: EVQLLESGGGLVQPGGSLRLSCAASGFTFSSHAMSWVRQAPGKGLEWVSAIWASGEQYYADSVKGRFTISRDNSKNTLYLQMNSLRAEDTAVYYCAKGWLGNFDYWGQGTLVTVSSASVAAPSVFIFPPSDEQLKSGTASVVCLLNNFYPREAKVQWKVDNALQSGNSQESVTEQDSKDSTYSLSSTLTLSKADYEKHKVYACEVTHQGLSSPVTKSFNRGEC
light 2: DIVMTQTPLSLSVTPGQPASISCRSSQSLVHSNGNTFLHWYLQKPGQSPQLLIYTVSNRFSGVPDRFSGSGSGTDFTLKISRVEAEDVGVYFCSQTTHVPWTFGGGTKVEIKRTVAAPSVFIFPPSDRKLKSGTASVVCLLNNFYPREAKVQWKVDNALQSGNSQESVTEQDSKDSTYSLSSTLTLSKADYEKHKVYACEVTHQGLSSPVTKSFNRGEC
heavy 1: not shown
heavy 2: QVQLVQSGAEVKKPGASVKVSCKASGYSFTGYYIHWVRQAPGQSLEWMGRVIPNAGGTSYNQKFKGRVTLTVDKSISTAYMELSRLRSDDTAVYYCAREGIYWWGQGTTVTVSSASTKGPSVFPLAPSSKSTSGGTAALGCLVEDYFPEPVTVSWNSGALTSGVHTFPAVLQSSGLYSLSSVVTVPSSSLGTQTYICNVNHKPSNTKVDEKVEPKSCDKTHTCPPCPAPEAAGGPSVFLFPPKPKDTLMISRTPEVTCVVVDVSHEDPEVKFNWYVDGVEVHNAKTKPREEQYNSTYRVVSVLTVLHQDWLNGKEYKCKVSNKALGAPIEKTISKAKGQPREPQVCTLPPSRDELTKNQVSLSCAVKGFYPSDIAVEWESNGQPENNYKTTPPVLDSDGSFFLVSKLTVDKSRWQQGNVFSCSVMHEALHNHYTQKSLSLSPG
For the molecule B3, in assay [1], the “EC50, two cell line bridging assay” value was found to be 0.0025 nM.

B4: P1AE2487, CD40 (P1AE0817) x FAP (4B9) (2+1) C-terminal crossfab fusion (bispecific antibody, human IgG1, kappa, L234A L235A)
light 1: EIVLTQSPGTLSLSPGERATLSCRASQSVTSSYLAWYQQKPGQAPRLLINVGSRRATGIPDRFSGSGSGTDFTLTISRLEPEDFAVYYCQQGIMLPPTFGQGTKVEIKSSASTKGPSVFPLAPSSKSTSGGTAALGCLVKDYFPEPVTVSWNSGALTSGVHTFPAVLQSSGLYSLSSVVTVPSSSLGTQTYICNVNHKPSNTKVDKKVEPKSC
light 2: DIVMTQTPLSLSVTPGQPASISCRSSQSLVHSNGNTFLHWYLQKPGQSPQLLIYTVSNRFSGVPDRFSGSGSGTDFTLKISRVEAEDVGVYFCSQTTHVPWTFGGGTKVEIKRTVAAPSVFIFPPSDEQLKSGTASVVCLLNNFYPREAKVQWKVDNALQSGNSQESVTEQDSKDSTYSLSSTLTLSKADYEKHKVYACEVTHQGLSSPVTKSFNRGEC
heavy 1: not shown
heavy 2: QVQLVQSGAEVKKPGASVKVSCKASGYSFTGYYIHWVRQAPGQSLEWMGRVIPNAGGTSYNQKFKGRVTLTVDKSISTAYMELSRLRSDDTAVYYCAREGIYWWGQGTTVTVSSASTKGPSVFPLAPSSKSTSGGTAALGCLVKDYFPEPVTVSWNSGALTSGVHTFPAVLQSSGLYSLSSVVTVPSSSLGTQTYICNVNHKPSNTKVDKKVEPKSCDKTHTCPPCPAPEAAGGPSVFLFPPKPKDTLMISRTPEVTCVVVDVSHEDPEVKFNWYVDGVEVHNAKTKPREEQYNSTYRVVSVLTVLHQDWLNGKEYKCKVSNKALGAPIEKTISKAKGQPREPQVCTLPPSRDELTKNQVSLSCAVKGFYPSDIAVEWESNGQPENNYKTTPPVLDSDGSFFLVSKLTVDKSRWQQGNVFSCSVMHEALHNHYTQKSLSLSPG
notes: bivalent for CD40, monovalent for FAP; also called CD40 x FAP (4B9) 2+1 crossfab
The EC50 is the concentration at which the effect is half-maximal. Molecule B4 registered a half-maximal effective concentration (EC50) in assay [3] of 0.086 nM.

B5: P1AE1702_Fab, humanized anti-FAP clone 212 variant with VL2G2a (Fab, V domains shown)
VH: EVQLLESGGGLVQPGGSLRLSCAASGYTLTDYNMDWVRQAPGKGLEWVGDIYPNTGGTIYNQKFKGRFTISIDKSKNTAYLQMNSLRAEDTAVYYCTRFRGIHYAMDYWGQGTTVTVSS
VL: DIQMTQSPSSLSASVGDRVTITCRASESVDNYGLSFINWFQQKPGQPPKLLIYGTSNRGSGVPSRFSGSGSGTDFTLTISSLQPEDFAMYFCQQSNEVPYTFGGGTKVEIK
notes: Fab
On to B5, for which, in assay [4], the Kd was determined as 0.213 nM, the “T ½” value turned out to be 1.8 h, the dissociation rate constant (koff) was found to be 0.000107 s⁻¹ and the kon was 502000 M⁻¹ s⁻¹.

B6: anti-FAP antibody 4B9 (antibody, V domains shown)
VH: EVQLLESGGGLVQPGGSLRLSCAASGFTFSSYAMSWVRQAPGKGLEWVSAIIGSGASTYYADSVKGRFTISRDNSKNTLYLQMNSLRAEDTAVYYCAKGWFGGFNYWGQGTLVTVSS
VL: EIVLTQSPGTLSLSPGERATLSCRASQSVTSSYLAWYQQKPGQAPRLLINVGSRRATGIPDRFSGSGSGTDFTLTISRLEPEDFAVYYCQQGIMLPPTFGQGTKVEIK
In turn, B6 gave an EC50 in assay [5] of 0.089 µg/mL.

B7: P1AA9663, CD40 (huCD40) x FAP (28H1) (2+2) C-terminal crossfab fusion (bispecific antibody, human IgG1, kappa, L234A L235A)
light 1: EVQLLESGGGLVQPGGSLRLSCAASGFTFSSHAMSWVRQAPGKGLEWVSAIWASGEQYYADSVKGRFTISRDNSKNTLYLQMNSLRAEDTAVYYCAKGWLGNFDYWGQGTLVTVSSASVAAPSVFIFPPSDEQLKSGTASVVCLLNNFYPREAKVQWKVDNALQSGNSQESVTEQDSKDSTYSLSSTLTLSKADYEKHKVYACEVTHQGLSSPVTKSFNRGEC
light 2: DIQMTQSPSSLSASVGDRVTITCRSSQSLVHSNGNTFLHWYQQKPGKAPKLLIYTVSNRFSGVPSRFSGSGSGTDFTLTISSLQPEDFATYFCSQTTHVPWTFGQGTKVEIKRTVAAPSVFIFPPSDRKLKSGTASVVCLLNNFYPREAKVQWKVDNALQSGNSQESVTEQDSKDSTYSLSSTLTLSKADYEKHKVYACEVTHQGLSSPVTKSFNRGEC
heavy: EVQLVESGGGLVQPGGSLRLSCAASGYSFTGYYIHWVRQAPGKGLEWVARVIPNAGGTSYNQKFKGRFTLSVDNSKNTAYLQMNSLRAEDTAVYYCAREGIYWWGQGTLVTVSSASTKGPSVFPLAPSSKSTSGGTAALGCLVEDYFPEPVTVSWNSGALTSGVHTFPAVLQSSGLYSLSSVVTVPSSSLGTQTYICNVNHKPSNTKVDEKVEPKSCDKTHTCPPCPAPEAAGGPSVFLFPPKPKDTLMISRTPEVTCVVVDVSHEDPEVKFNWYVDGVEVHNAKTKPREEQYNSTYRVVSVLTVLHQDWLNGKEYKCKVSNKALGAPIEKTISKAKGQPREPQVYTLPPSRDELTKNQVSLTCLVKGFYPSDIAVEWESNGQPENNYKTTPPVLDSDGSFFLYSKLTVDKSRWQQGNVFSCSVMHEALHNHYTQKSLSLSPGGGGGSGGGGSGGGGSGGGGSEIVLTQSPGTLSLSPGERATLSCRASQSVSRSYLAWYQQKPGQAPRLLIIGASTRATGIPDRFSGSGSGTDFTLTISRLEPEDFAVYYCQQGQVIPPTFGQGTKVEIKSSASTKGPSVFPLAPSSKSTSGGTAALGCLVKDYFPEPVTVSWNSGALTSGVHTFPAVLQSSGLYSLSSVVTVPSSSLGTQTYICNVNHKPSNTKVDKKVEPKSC
Take B7: the “EC50, two cell line bridging assay” value in assay [1] turned out to be 0.0132 nM.

These data come from patent US20250320305A1 (Hoffmann-La Roche, published 2025).
